Source: patent US20170298139A1 (OPI VI IP HOLDCO, published 2017)

B1: SBT-040-WT-ATAC11 (antibody, human IgG1, kappa)
heavy: not shown
light: DIQMTQSPSSVSASVGDRVTITCRASQGIYSWLAWYQQKPGKAPNLLIYTASTLQSGVPSRFSGSGSGTDFTLTISSLQPEDFATYYCQQANIFPLTFGGGTKVEIKRTVAAPSVFIFPPSDEQLKSGTASVVCLLNNFYPREAKVQWKVDNALQSGNSQESVTEQDSKDSTYSLSSTLTLSKADYEKHKVYACEVTHQGLSSPVTKSFNRGEC
modifications: ATAC11 on reduced cysteines; sites not stated (heavy or light chain); ATAC11 (maleimide-PEG4 linker with immune-stimulatory compound) on reduced cysteines; sites not stated (heavy or light chain); DAR 4.5
B2: SBT-040-WT-ATAC4 (antibody, human IgG1, kappa)
heavy: not shown
light: B1 light
modifications: ATAC4 on lysines; sites not stated (heavy or light chain); ATAC4 (PEG linker with activated ester and immune-stimulatory compound) on lysines; sites not stated (heavy or light chain); DAR 4.6
notes: also called SBT-040-G1-ATAC4
B3: SBT-040-WT-ATAC3 (antibody, human IgG1, kappa)
heavy: not shown
light: B1 light
modifications: ATAC3 on lysines; sites not stated (heavy or light chain); ATAC3 (PEG linker with activated ester and immune-stimulatory compound) on lysines; sites not stated (heavy or light chain); DAR 5.4
notes: also called SBT-040-G1-ATAC3
B4: SBT-040-G2-ATAC3 (antibody, human IgG2, kappa)
heavy: not shown
light: B1 light
modifications: ATAC3 on lysines; sites not stated (heavy or light chain); ATAC3 (PEG linker with activated ester and immune-stimulatory compound) on lysines; sites not stated (heavy or light chain); DAR 3.3
B5: SBT-040-WT-ATAC22 (antibody, human IgG1, kappa)
heavy: not shown
light: B1 light
modifications: ATAC22 on reduced cysteines; sites not stated (heavy or light chain); ATAC22 (maleimidocaproyl-Val-Ala-PAB linker with immune-stimulatory compound) on reduced cysteines; sites not stated (heavy or light chain); DAR 4.6
B6: SBT-040-WT antibody (antibody, human IgG1, kappa)
heavy: not shown
light: B1 light
notes: also called SBT-040-G1
B7: SBT-040-AAA-ATAC11 (antibody, human IgG1, kappa)
heavy: not shown
light: B1 light
modifications: ATAC11 on reduced cysteines; sites not stated (heavy or light chain); ATAC11 (maleimide-PEG4 linker with immune-stimulatory compound) on reduced cysteines; sites not stated (heavy or light chain); DAR 2.9
B8: SBT-040-AAA-ATAC22 (antibody, human IgG1, kappa)
heavy: not shown
light: B1 light
modifications: ATAC22 on reduced cysteines; sites not stated (heavy or light chain); ATAC22 (maleimidocaproyl-Val-Ala-PAB linker with immune-stimulatory compound) on reduced cysteines; sites not stated (heavy or light chain); DAR 4.1
B9: SBT-040-VLPLL-ATAC11 (antibody, human IgG1, kappa)
heavy: not shown
light: B1 light
modifications: ATAC11 on reduced cysteines; sites not stated (heavy or light chain); ATAC11 (maleimide-PEG4 linker with immune-stimulatory compound) on reduced cysteines; sites not stated (heavy or light chain); DAR 2.9
B10: SBT-040-VLPLL-ATAC22 (antibody, human IgG1, kappa)
heavy: not shown
light: B1 light
modifications: ATAC22 on reduced cysteines; sites not stated (heavy or light chain); ATAC22 (maleimidocaproyl-Val-Ala-PAB linker with immune-stimulatory compound) on reduced cysteines; sites not stated (heavy or light chain); DAR 3.9
B11: SBT-040-G2 (antibody, human IgG2, kappa)
heavy: not shown
light: B1 light
notes: also called SBT-040-G2WT
B12: SBT-040-G2-ATAC11 (antibody, human IgG2, kappa)
heavy: not shown
light: B1 light
modifications: ATAC11 on reduced cysteines; sites not stated (heavy or light chain); ATAC11 (maleimide-PEG4 linker with immune-stimulatory compound) on reduced cysteines; sites not stated (heavy or light chain); DAR 4.0
B13: SBT-040-G2-ATAC22 (antibody, human IgG2, kappa)
heavy: not shown
light: B1 light
modifications: ATAC22 on reduced cysteines; sites not stated (heavy or light chain); ATAC22 (maleimidocaproyl-Val-Ala-PAB linker with immune-stimulatory compound) on reduced cysteines; sites not stated (heavy or light chain); DAR 4.1
B14: SBT-040-G2-ATAC4 (antibody, human IgG2, kappa)
heavy: not shown
light: B1 light
modifications: ATAC4 on lysines; sites not stated (heavy or light chain); ATAC4 (PEG linker with activated ester and immune-stimulatory compound) on lysines; sites not stated (heavy or light chain); DAR 2.9

Columns and labels:
Rhesus CD40 ECD monomer = target: T1, Rhesus CD40 ECD monomer (rhesus, UniProt F6SNI1 21-193); assay: BLI (Octet Red 96), antibody on anti-human Fc sensor, monomeric CD40 ECD as analyte, 1:1 fit
T1 construct: Recombinant monomeric CD40 ECD used as analyte; also called monomeric rhesus CD40
Experimental: (§1) Analysis of CD40 ECD interaction was performed using Octet Red 96 instrument (ForteBio). The Octet systems use propriety BLI to analyze biomolecular interaction. […] The experiments were comprised of 5 steps: (1) baseline acquisition (60 s); (2) antibodies and antibody immune-stimulatory compound conjugates loading onto anti-human Fc biosensor (120 s); (3) second baseline acquisition (60 s); (4) association of interacting monomeric CD40 ECD protein for kₒₙ measurement (120 s); (5) Dissociation of interacting monomeric CD40 ECD for koff measurement (360 s). The interacting monomeric CD40 ECD were used at 5-6 concentrations of 3-fold concentration series. Data were analyzed using Octet Data Analysis Sofware 9.0 (ForteBio) and fitted to the 1:1 binding model. Equilibrium dissociation constants (KD) were calculated by the […].

human FcγRIIIB = target: T2, human FcγRIIIB (human, UniProt O75015 17-200); assay: BLI (Octet Red 96), FcγR on anti-his tag sensor, antibody as analyte, avidity fit
T2 construct: also called CD16b
Experimental: For human FcγRIIB/C, FcγRIIIA F158, FcγRIIIA V158 and FcγRIIIB interaction studies, the proteins were immobilized on anti-his tag biosensors and incubated with varying concentration of unconjugated anti-CD40 antibodies or anti-CD40 antibody immune-stimulatory compound conjugates ranging from 0.04 μM to 8 μM. […] The experiment comprised of 5 steps: (1) baseline acquisition (60 s); (2) anti-CD40 antibodies or anti-CD40 antibody immune-stimulatory compound conjugates loading onto […] (120 s); (3) second baseline acquisition (60 s); (4) association of interacting protein for kₒₙ measurement (120 s); (5) dissociation of interacting FcγR for koff measurement (300 s). The interacting anti-CD40 antibodies or anti-CD40 antibody immune-stimulatory compound conjugates were used at 4 concentrations of 2 fold concentration series. Data were analyzed using Octet Data Analysis Software 9.0 (ForteBio) and fitted to the avidity binding model. Equilibrium dissociation constants (KD) were calculated by the […].

Human CD40 ECD monomer = target: T3, Human CD40 ECD monomer (human, UniProt P25942 21-193); assay: BLI (Octet Red 96), antibody on anti-human Fc sensor, monomeric CD40 ECD as analyte, 1:1 fit
T3 construct: extracellular domain; Recombinant monomeric CD40 ECD used as analyte; also called monomeric human CD40; CD40 Extracellular Domain (ECD)
Experimental: as §1

human FcγRI = target: T4, human FcγRI (human, UniProt P12314 16-288, limits assumed); assay: BLI (Octet Red 96), antibody on anti-human Fc sensor, monomeric FcγR as analyte
T4 construct: Monomeric FcγR used as analyte in solution; also called CD64
Experimental: Human FcγR interaction analysis was also performed using Octet Red 96 instrument. […] The experiments were comprised of 5 steps: (1) baseline acquisition (60 s); (2) anti-CD40 antibodies or anti-CD40 antibody immune-stimulatory compound conjugates loading onto anti-human Fc biosensor (120 s); (3) second baseline acquisition (60 s); (4) association of interacting protein for kₒₙ measurement (120 s); (5) dissociation of interacting FcγR for koff measurement (300 s). The interacting monomeric FcγR were used at 5-6 concentrations of 3-fold concentration series. Data were analyzed using Octet Data Analysis Software 9.0 (ForteBio) and fitted to the 1:1 binding model. Equilibrium dissociation constants (KD) were calculated by the […].

T3 sequence (P25942 21-193): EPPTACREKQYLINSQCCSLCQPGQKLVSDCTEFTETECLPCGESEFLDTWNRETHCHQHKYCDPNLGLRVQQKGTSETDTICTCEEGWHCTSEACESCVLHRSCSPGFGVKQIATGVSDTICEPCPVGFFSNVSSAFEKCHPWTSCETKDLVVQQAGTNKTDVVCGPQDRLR
T2 sequence (O75015 17-200 limits assumed): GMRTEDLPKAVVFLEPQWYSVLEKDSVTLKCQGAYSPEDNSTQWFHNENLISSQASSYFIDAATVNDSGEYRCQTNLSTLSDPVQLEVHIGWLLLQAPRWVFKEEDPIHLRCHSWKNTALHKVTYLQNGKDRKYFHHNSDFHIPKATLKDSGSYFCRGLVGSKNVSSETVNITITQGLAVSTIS
T4 sequence (P12314 16-288 limits assumed): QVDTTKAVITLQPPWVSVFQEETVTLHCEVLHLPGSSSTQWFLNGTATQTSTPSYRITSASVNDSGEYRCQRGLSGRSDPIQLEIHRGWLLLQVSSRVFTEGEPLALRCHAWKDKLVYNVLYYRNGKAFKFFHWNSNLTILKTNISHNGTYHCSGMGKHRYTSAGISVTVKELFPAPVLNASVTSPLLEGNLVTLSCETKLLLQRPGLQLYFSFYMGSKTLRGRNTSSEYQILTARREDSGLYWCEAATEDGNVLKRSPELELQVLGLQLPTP
T1 sequence (F6SNI1 entry or part of it limits assumed): as the sequence (P25942 21-193) above, with G43S, H56R, W89L, T92M, A95S, L101P, S106L, H142R, L172Q counted along it

| Binder | Kd (Rhesus CD40 ECD monomer) [nM] | Kd (human FcγRIIIB) [µM] | Kd (Human CD40 ECD monomer) [nM] | binding result (human FcγRI) |
| --- | --- | --- | --- | --- |
| B1 | 13.5 | 5 | – | – |
| B2 | 12.9 | 3.24 | 9.3 | – |
| B3 | 13.1 | 1.5 | 9 | – |
| B4 | 11.5 | 3.93 | 7.3 | no binding (tested: 1.2 nM to 1 µM FcγR) |
| B5 | 13.6 | 2.71 | 8 | – |
| B6 | 14 | 3.6 | – | – |
| B7 | – | 3.83 | – | – |
| B8 | – | – | 5 | – |
| B9 | – | – | 7.6 | – |
| B10 | – | – | 7.5 | – |
| B11 | 12.4 | – | 7.7 | no binding (tested: 1.2 nM to 1 µM FcγR) |
| B12 | 14 | – | 7.4 | no binding (tested: 1.2 nM to 1 µM FcγR) |
| B13 | 15.2 | – | 7.2 | no binding (tested: 1.2 nM to 1 µM FcγR) |
| B14 | 13.6 | – | 8.7 | no binding (tested: 1.2 nM to 1 µM FcγR) |
